Measurements taken from the domain aggregation screens of Martell et al. (2025).

test: soluble fraction after stress (log2 fold change); higher = more stays soluble; pooled small domains, quantitative proteomics; settings: stress: 75 degC
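Note: 20 min heating vs room temperature control held 20 min.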

Going from “HMSQITEADYIPNTDKTWGELMEETGESLPNLVERYNNEMTKSNGKEQPQSIIQRIIEDYQMVS” to “HMSQLSDEQELRDIARGIIEGNPNEAEKYRAGRTGLLGFFVGKLMAETEGKANPRLASRILKELLE”, the “soluble fraction (log2)” value falls from 0.253 to -0.144.

Compared with “HMSQLSQIVDAFGGLRPFARALNKPPSTVQYWIEKGGIPASVVSPIMKLSEEKGLGLSRDQVSAAVS”, “HMSQLTVGTVVTGNASLQTQGLKLPSFASGSRPASPNIGQMIWNSSDAKAQIWNGSEWDDVG” is lower in “soluble fraction (log2)” value: 0.441 for the first, -0.0784 for the second.

Compared with “HMSQNVSFTVDSGQAGLRLDVFLSQADPAFSRSQIKYAIEEGDVTVNGKEPKVSQHLKDGDIVELHLE”, “HMSQQEAQLNSLVKIYESMKPKDAARIFDTLDMDVLLDVVMRMKEARSAAVLAEMTPDRAKEVTLQLAD” is lower in “soluble fraction (log2)” value: 0.0493 for the first, -0.912 for the second.

Compared with “HMSQTDQALRHLIREAWATLPQRQQQAVELAYYEGLPDTEIAARLNQPVEEVKTSIVLGMAHLREALHSY”, “HMSQTDTDAKDARQKILALLSDGEWHQKTELLKIDAPKEAVSNAIRYLVLEELISIDHAKVRA” is higher in “soluble fraction (log2)” value: -0.811 for the first, -0.447 for the second.

First: HMSQTVKYVNTTSGLNMRTGPATSYAKITTIAYGQSVNVLSTSNGWSKINYSGSTGYVSSQYLQSKKPS
Second: HMSQVHYAVLFKNASAAEATEIVTYARETLGVQDIKINANGDILVPEDKVEEMRVSMSIAGFPK
The “soluble fraction (log2)” value of the first is lower: -2.77 for the first, 0.23 for the second.

Going from “HMSQVSTKYINVSSAYVRSKPSKDGEIVTSLIKNTDVTVTGENGDWYKIKFNNYEGYIFKELLSDSKLEE” to “HMSRAMFEMHADWQPTDSIRGLLGRAGLPTDIAKLDQSRIGDFVNHWFGKPDRNTADSWNGLLVGWLKRTQ”, the “soluble fraction (log2)” value falls from -0.442 to -1.18.

“HMSREEFLAGLEEALAGEVPASVIRENLNYYNSYISQEMAKGRTVDEIVDEIGEPRIVARTIIDSSEAAGE” and “HMSRELVILGNSMLNNALKAFHVSPASIKKKHWDKLILDYHLESKNNILIDIALGKRINVMVAHQLTSIID” are within 0.2 log units of each other in “soluble fraction (log2)” value: 0.319 for the first, 0.408 for the second.

First: HMSREVTVPPLSGLTLRDAARTLAERGLLMEAEGQGAVHRQDPPAGTRVPTGTPVRVFLTLPEQNS
Second: HMSRGTLFVDVRGAVAKPGVYELPEKSRVFQAVEAAGGLLPEALERLVNQAAELTDGQQVYIPFEGEE
The “soluble fraction (log2)” value of the first is higher: 0.842 for the first, 0.405 for the second.

Compared with “HMSRLLRTDAHLQYAAERGLPVTASAYTPVFAGAKQYTGRIESFDAQTIRFADGPAVERKAVARLEAE”, “HMSRLLTTRQREVFEVATREGFWDVPRRINLSELAKVLGVAKSTLSSQLQRIESAVFHAFTDEIRRQS” is lower in “soluble fraction (log2)” value: 0.104 for the first, -2.09 for the second.

Compared with “HMSRMLTVKQREVFDLAMREGYWETPRRITLTMLASLLSVSKSTLSVQLHKIEGTVLSSFSDEVRRRS”, “HMSRQDYLQTIYRLSVGKGYTTNKKIADFLSVSKPSVTEMIGKLQGEGLVAMDGAHIFLTEDGAEQ” is higher in “soluble fraction (log2)” value: -1.87 for the first, -0.595 for the second.

Going from “HMSRVTVDVNPDVLQWAIDKKGKGDIKNKFPKIDEWLNGISKPTIHQLENFAKYVSVPFGYLLLSKPPVE” to “HMSRYQDIANDIEKDIIEKKYTRKLPEQFELAQKYQTSRVTIVHALKILQNKKLIRTVKGHGTFITS”, the “soluble fraction (log2)” value falls from 0.208 to -1.84.

First: HMSSDEDELESIIKRVFADNPIELERLQNGEDKLIKFFMGLVMRQTKGKYPPKIIIDLLNKS
Second: HMSSDLDQYMKNIRKQHNLSKREFAKQLGISAATIVRIENGITVSPSKNLISKLAYYLQKSEVEILQDIQS
The “soluble fraction (log2)” value of the first is higher: -0.599 for the first, -1.16 for the second.

Going from “HMSSEMATLRSIVDNKQAEKVHGMMVDMFTASAMVQVYDKVNDENQAKMREMLKTQKGFQRMADFALSKI” to “HMSSEPASLVGKTGVAASVLRPSGRVEVNGEYYDAVSINGFIEKGESVFVHKYENAQLYVSKNSE”, the “soluble fraction (log2)” value rises from -0.143 to 0.162.

Going from “HMSSESIKTDKNVGVGSTLEELEKAYGSDYTLSGKMYRYYQDDNSKYMYFFILNDVVQYYGYGIDV” to “HMSSIDLTARSGRAALKHRLSLLGYEFSKIELETLYVRFIELADEKKLLHDEDLIELVKEKN”, the “soluble fraction (log2)” value falls from -1.65 to -3.12.

Compared with “HMSSIRDVVPEGLLSDREKLVLVLAFDRDLDGPDMARTLGISANTVRVLKARALKKLRQAGIQP”, “HMSSIVLTARSGRAALAYRVKSIGVDLSKDQLDLVYKTFLGFADKKKEIIDTDIPQILKASGI” is lower in “soluble fraction (log2)” value: -0.954 for the first, -2.74 for the second.

First: HMSSIYVYPNPTANRIYIQADNIKKAELFDLMGRKVRSTNQPQIDISRLSRGNYILQVKTQNNTQSFKIIK
Second: HMSSKAVLEKFEALFIDQMLQSMRKATVRSELFDSEGIKLYESLFDKEISEELAKSGGLGLTKDLEQQL
The “soluble fraction (log2)” value of the first is higher: -0.705 for the first, -1.36 for the second.

First: HMSSKFKIVGEILSIKKSDILYIIEILSNNEVVKATAVEDEIKDLKIGDKILLSSKAFNPIVNK
Second: HMSSLTDNFVKALSYYLALSGKSKKEVADGIGIPPTTFSSWSNGKHLPDMDRLQNLATYLGAPVSEFFDFT
The “soluble fraction (log2)” value of the first is lower: -2.29 for the first, 0.238 for the second.

Compared with “HMSSPVGIAQATTYVYVRAGHSMQAAKVGVLSPGEKVGVTGRSAQGFSEVVYNGVHRWVGSRYLSPT”, “HMSSQWWYSAGGERKGPVDFATLRGLYVQGAIDGRTLAWREDMQGWEAVNDIPDLEPLRRAVPPEL” is higher in “soluble fraction (log2)” value: -4.43 for the first, -0.0747 for the second.

First: HMSSRSLSYSDFIERVDAGQVSKVVMDGERLVVVGQDGTSYVTIKPPGDQVTENLSRELISKGVEVEAEPQ
Second: HMSSRSLTYSDFIERVDAGQVDAVTLDGERIVIRAKDGNTYVAIKPQGEDVTGSLTRDLIAKGVDVEAEPQ
The “soluble fraction (log2)” value of the first is lower: -0.0305 for the first, 0.204 for the second.

With “HMSSSDYDVYNKAINLMLNLLKEPKSIEEVTASLNITKSQAITWINRALNEGKIIKTNRPVRYVVNN” the “soluble fraction (log2)” value was -1.39.
